From US20260234276A1 (DOMAIN THERAPEUTICS, published 2026)
Values joined by “and” are separate entries in the source; they are usually repeats but may differ in a detail not shown here. Equal values may be shown once.

Tests used:
human CCR8 [1] = molecular target: T1, human CCR8 (human, UniProt P51685 1-355); assay: cell-based or functional assay
human CCR8 [2] = molecular target: T1, human CCR8; assay: cell-based or functional assay; remark: listed apart in the source
human CCR8 [3] = molecular target: T1, human CCR8; assay: flow cytometry, hCCR8 transfected CHOK1 cells
Procedure: Briefly, 1·10⁵ cells per well in a 96 well plate were incubated with a dilution of unconjugated anti-CCR8 mAb at 10 μg/mL then diluted at 1/3.33, 4 dilution points (during 30 min at 4° C.). […] To determine EC50 value, 8 concentrations of anti-CCR8 mAb were tested. Unbound antibodies were washed away with PBS (Invitrogen by Thermofisher Scientific, Illkirch-Graffenstaden, France) supplemented by 2% Fetal Bovine Serum (Invitrogen by Thermofisher Scientific, Illkirch-Graffenstaden, France) and 2 mM EDTA (Invitrogen by Thermofisher Scientific, Illkirch-Graffenstaden, France). Subsequently, cells are centrifuged (5 min at 400 g) and bound antibody is detected with F(ab′)₂-Goat anti-Mouse IgG (H+L) Cross-Adsorbed Secondary Antibody, Alexa Fluor 488 (dilution 1/500) (Invitrogen by Thermofisher Scientific, Illkirch-Graffenstaden, France) or with F(ab′)₂-Goat anti-Human IgG Fc Secondary Antibody, PE (Invitrogen by Thermofisher Scientific, Illkirch-Graffenstaden, France) (dilution 1/1000) at 4° C. for 30 min. Detection reagent is washed away and cells are centrifuged (5 min at 400 g) and resuspended in 30 μL PBS. Bound detection antibody is quantified on a MacsQuant16 (Miltenyi, Gladbach, Germany) (B1 or B2 channel, 5000 events per acquisition).

pm5 = pm5 (human, sulfated tyrosines at Y15 and Y17); assay: ELISA on coated peptide [cont.]
Procedure: (§1) The specific binding properties of antibodies were evaluated by ELISA with coated CCR8 related peptides (500 ng/mL) in carbonate/bicarbonate buffer. Different peptides were used as described in Table 1 (see Example 1). Each anti-CCR8 mAb was tested at 1 μg/mL then diluted at 1/10. After an incubation at room temperature during 90 min, unbound mAbs were removed by washings. […] After washings, 3,3′,5,5′-tetramethylbenzidine (TMB) (Interchim, Montlugon, France) was added for 15 min. Then the optical density (OD) was determined by using a multiplate reader (Tecan, Lyon, France) and correlated with mAb reactivity on the panel of coated peptides.

pm3 = pm3 (human, sulfated tyrosine at Y17); assay: ELISA on coated peptide [cont.]
Procedure: as §1

pm8 = pm8 (human, sulfated tyrosines at Y15, Y16 and Y17); assay: ELISA on coated peptide [cont.]
Procedure: as §1

pm6 = pm6 (human, sulfated tyrosines at Y16 and Y17); assay: ELISA on coated peptide [cont.]
Procedure: as §1

Sequence of pm8 (human, sulfated tyrosines at Y15, Y16 and Y17) (peptide, as listed by the source): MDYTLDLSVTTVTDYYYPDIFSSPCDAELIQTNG
Sequence of pm6 (human, sulfated tyrosines at Y16 and Y17) (peptide, as listed by the source): as above
Sequence of pm5 (human, sulfated tyrosines at Y15 and Y17) (peptide, as listed by the source): as above
Sequence of pm3 (human, sulfated tyrosine at Y17) (peptide, as listed by the source): as above

B1: 3-52 (antibody, V domains shown)
VH: QVQLQQPGSELVRPGASVKLSCKASGYTFTSYWMHWVKQRPGQGLEWIGNIWPGSASTNYDEKFKNKATLTVDTSSSTAYMQLSSLTSEDSAVYYCIRGGKGAMDYWSQGTSVTVSS
VL: DVVMTQIPLSLPVSLGDQASISCRSSQSLENSYGNTYLNWYLQKPGQSPQLLIYRVSNRFSGVLDRFSGSGSGTDFTLKISRVEAEDLGVYFCLQVTHVPPTFGAGTKLELK
- hCCL1 (100 nM) residual response, Protocol #2, mAb 0.08 µg/mL (human CCR8 [1]): 99%
- hCCL1 (100 nM) residual response, Protocol #2, mAb 0.4 µg/mL (human CCR8 [1]): 83%
- hCCL1 (100 nM) residual response, Protocol #2, mAb 10 µg/mL (human CCR8 [1]): 56%
- hCCL1 (100 nM) residual response, Protocol #3, mAb 0.05 µg/mL (human CCR8 [1]): 116%
- hCCL1 (100 nM) residual response, Protocol #3, mAb 0.5 µg/mL (human CCR8 [1]): 90%
- hCCL1 (100 nM) residual response, Protocol #3, mAb 5 µg/mL (human CCR8 [1]): 45%
- IC50 (Gi2 BRET, pH 6.5) (human CCR8 [2]): 0.078 µg/ml and 0.523 nM
- IC50 (Gi2 BRET, pH 7.4) (human CCR8 [2]): 0.087 µg/ml and 0.579 nM
- % positive cells (human CCR8 [3]): 81.6%
- MFI fold change to isotype ctrl (human CCR8 [3]): 9.92 fold

B2: 3-23 (antibody, V domains shown)
VH: QVQLVETGGGLVRPGNSLKLSCVISGFTFSNYRIHWLRQPPGKRLEWIAVITVKSDNYEANYAESVKGRFTISRDDSKSSVYLQMNRLREEDTATYYCSRPDGFSPFVYWGQGTLVTVSA
VL: DIKMTQSPSSMYASLGERVTITCKASQDINNYLSWFQQKPGKSPKTLIYRADRLVDGVPSRFSGSGSGQDYSLTISSLDYEDMGIYYCLQYAEFPPTFGAGTKLELK
- binding result (pm5): binds
- binding result (pm3): binds
- binding result (pm8): binds
- binding result (pm6): binds
- IC50 (Gi2 BRET, pH 6.5) (human CCR8 [2]): > 4.5 µg/ml and > 30 nM
- IC50 (Gi2 BRET, pH 7.4) (human CCR8 [2]): > 4.5 µg/ml and > 30 nM
- % positive cells (human CCR8 [3]): 80%
- MFI fold change to isotype ctrl (human CCR8 [3]): 12.7 fold

B3: 3-40 (antibody, V domains shown)
VH: QVQLKESGPGLVAPSQSLSITCTVSGLSMNDYVVTWIRQPPGKGLEWLGVIWGGGNTYYNSDLKSRLSITKDNSKSQVFFKMSSLQTDDTAVYYCARRHRDYALDYWGQGISVTVSS
VL: ENVLTQSPAIMSASPGEKVTMTCRASSSVSSSYLHWYQQKSGASPKLWIYSTSNLASGVPARFSGSGSGTSYSLTISSVEAEDAATYYCQQYSGYPYTFGGGTKLEIK
- binding result (pm5): binds
- binding result (pm3): binds
- binding result (pm8): binds
- binding result (pm6): binds
- % positive cells (human CCR8 [3]): 69.9%
- MFI fold change to isotype ctrl (human CCR8 [3]): 5.81 fold

B4: 3-12 (antibody, V domains shown)
VH: QVQLQQPGAVLVKPGASVKMSCKASGYTFTSYNMHWLKQTPGQGLEWIGAIAPGKGDTSHNQKFKGKATLTADKSSSTAYMQLSSLTSEDSAVYYCARRNNYEPFVYWGQGTLVTVSA
VL: DIVFTQSPASLAVSLGQRATISCRASESVEYYGTSLMQWYQQKPGQPPKLLIYAASNVESGVPARFSGSGSGTDFSLNIHPVEADDIAMYFCQQSRKVPFTFGSGTKLEIK
- binding result (pm5): binds
- binding result (pm8): binds
- binding result (pm6): binds
- IC50 (Gi2 BRET, pH 6.5) (human CCR8 [2]): 0.037 µg/ml and 0.248 nM
- IC50 (Gi2 BRET, pH 7.4) (human CCR8 [2]): 0.088 µg/ml and 0.587 nM
- % positive cells (human CCR8 [3]): 87.8%
- MFI fold change to isotype ctrl (human CCR8 [3]): 14.9 fold

B5: 3-51 (antibody, V domains shown)
VH: QVQLQQSGAELVRPGVSVKISCKGSGYTFTDYAIHWVKQRHAKSLEWIGVISTYYGDTRYNQKFKGKATMTVDKSSNTAYMELARLTSEDSAIYYCARGGLRQDYAMNYWGQGTSVTVSS
VL: not shown
- binding result (pm5): binds
- binding result (pm8): binds
- IC50 (Gi2 BRET, pH 6.5) (human CCR8 [2]): > 67 nM and > 10 µg/ml
- IC50 (Gi2 BRET, pH 7.4) (human CCR8 [2]): > 10 µg/ml and > 67 nM
- % positive cells (human CCR8 [3]): 73.2%
- MFI fold change to isotype ctrl (human CCR8 [3]): 6.91 fold
